# Measured values reported in US20200179511A1 (Novartis, published 2020).
# T1: human BCMA (B-cell maturation antigen) (human, UniProt Q02223 1-184)
# T1 sequence (looked up): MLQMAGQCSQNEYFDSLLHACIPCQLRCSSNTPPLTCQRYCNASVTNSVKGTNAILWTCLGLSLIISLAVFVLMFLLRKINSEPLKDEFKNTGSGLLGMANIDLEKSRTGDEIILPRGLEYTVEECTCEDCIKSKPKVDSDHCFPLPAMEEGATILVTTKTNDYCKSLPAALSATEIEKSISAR
# Experiments:
# [1] = biological target: T1, human BCMA (B-cell maturation antigen); test: cell-based or functional assay
# [2] = biological target: T1, human BCMA (B-cell maturation antigen); test: cell-based or functional assay; remark: listed apart in the source
binder,measurement,setting,value
BCMA×CD3 bispecific antibody EM90 (bispecific antibody) light: QAVVTQEPSLTVSPGGTVTLTCGSSTGAVTTSNYANWVQEKPGQAFRGLIGGTNKRAPGTPARFSGSLLGGKAALTLSGAQPEDEAEYYCALWYSNLWVFGGGTKLTVLGQPKAAPSVTLFPPSSEELQANKATLVCLISDFYPGAVTVAWKADSSPVKAGVETTTPSKQSNNKYAASSYLSLTPEQWKSHRSYSCQVTHEGSTVEKTVAPTECS heavy 1: not shown heavy 2: EVQLVESGGGLVKPGGSLRLSCAASGFTFSNSGMIWVRQAPGKGLEWVGHIRSKTDGGTTDYAAPVKGRFTISRDDSKNTLYLQMNSLKTEDTAVYYCTTGGSGSFDYWGQGTLVTVSSASTKGPSVFPLAPSSKSTSGGTAALGCLVKDYFPEPVTVSWNSGALTSGVHTFPAVLQSSGLYSLSSVVTVPSSSLGTQTYICNVNHKPSNTKVDKRVEPKSCDKTHTCPPCPAPEAAGGPSVFLFPPKPKDTLMISRTPEVTCVVVDVSHEDPEVKFNWYVDGVEVHNAKTKPREEQYNSTYRVVSVLTVLHQDWLNGKEYKCKVSNKALPAPIEKTISKAKGQPREPQVCTLPPSREEMTKNQVSLSCAVKGFYPSDIAVEWESNGQPENNYKTTPPVLDSDGSFFLVSKLTVDKSRWQQGNVFSCSVMHEALHNHYTQKSLSLSPGK,fold enhancement of RTCC EC50 upon GSI treatment,[1],> 40 fold
"BCMA×CD3 bispecific antibody ER26 (bispecific antibody, human IgG1, kappa, N297A) heavy: QVQLVQSGAEVKKPGSSVKVSCKASGGTFSNYWMHWVRQAPGQGLEWMGATYRGHSDTYYNQKFKGRVTITADKSTSTAYMELSSLRSEDTAVYYCARGAIYNGYDVLDNWGQGTLVTVSSASTKGPSVFPLAPSSKSTSGGTAALGCLVKDYFPEPVTVSWNSGALTSGVHTFPAVLQSSGLYSLSSVVTVPSSSLGTQTYICNVNHKPSNTKVDKRVEPKSCDKTHTCPPCPAPELLGGPSVFLFPPKPKDTLMISRTPEVTCVVVAVSHEDPEVKFNWYVDGVEVHNAKTKPREEQYNSTYRVVSVLTVLHQDWLNGKEYKCKVSNKALAAPIEKTISKAKGQPREPQVCTLPPSREEMTKNQVSLSCAVKGFYPSDIAVEWESNGQPENNYKTTPPVLDSDGSFFLVSKLTVDKSRWQQGNVFSCSVMHEALHNHYTQKSLSLSPGK light: not shown not shown",fold enhancement of RTCC EC50 upon GSI treatment,[1],> 100 fold
"BCMA×CD3 bispecific antibody BU76 (bispecific antibody, human IgG1, kappa, N297A) heavy: QIQLVQSGPELKKPGETVKISCKASGYTFTDYSINWVKRAPGKGLKWMGWINTETREPAYAYDFRGRFAFSLETSASTAYLQINNLKYEDTATYFCALDYSYAMDYWGQGTSVTVSSASTKGPSVFPLAPSSKSTSGGTAALGCLVKDYFPEPVTVSWNSGALTSGVHTFPAVLQSSGLYSLSSVVTVPSSSLGTQTYICNVNHKPSNTKVDKRVEPKSCDKTHTCPPCPAPELLGGPSVFLFPPKPKDTLMISRTPEVTCVVVDVSHEDPEVKFNWYVDGVEVHNAKTKPREEQYASTYRVVSVLTVLHQDWLNGKEYKCKVSNKALPAPIEKTISKAKGQPREPQVCTLPPSREEMTKNQVSLSCAVKGFYPSDIAVEWESNGQPENNYKTTPPVLDSDGSFFLVSKLTVDKSRWQQGNVFSCSVMHEALHNHYTQKSLSLSPGK light: DIVLTQSPASLAMSLGKRATISCRASESVSVIGAHLIHWYQQKPGQPPKLLIYLASNLETGVPARFSGSGSGTDFTLTIDPVEEDDVAIYSCLQSRIFPRTFGGGTKLEIKRTVAAPSVFIFPPSDEQLKSGTASVVCLLNNFYPREAKVQWKVDNALQSGNSQESVTEQDSKDSTYSLSSTLTLSKADYEKHKVYACEVTHQGLSSPVTKSFNRGEC not shown",fold enhancement of RTCC EC50 upon GSI treatment,[1],> 100 fold
"Anti-BCMA J6M0 hIgG DLE CGW117 (MMAE) conjugate (antibody, V domains shown, drug conjugate CGW117 (MMAE); attachment site not stated) VH: QVQLVQSGAEVKKPGSSVKVSCKASGGTFSNYWMHWVRQAPGQGLEWMGATYRGHSDTYYNQKFKGRVTITADKSTSTAYMELSSLRSEDTAVYYCARGAIYDGYDVLDNWGQGTLVTVSS VL: DIQMTQSPSSLSASVGDRVTITCSASQDISNYLNWYQQKPGKAPKLLIYYTSNLHSGVPSRFSGSGSGTDFTLTISSLQPEDFATYYCQQYRKLPWTFGQGTKLEIKR","Fold GSI Enhancement, ADC killing assay, MM1S cells",[2],17.4 fold
same,"Fold GSI Enhancement, ADC killing assay, U266B1 cells",[2],23.1 fold
same,"IC50, ADC killing assay, MM1S cells, No GSI",[2],19.4 nM
same,"IC50, ADC killing assay, MM1S cells, with GSI LY-411575",[2],1.12 nM
same,"IC50, ADC killing assay, U266B1 cells, No GSI",[2],6.04 nM
same,"IC50, ADC killing assay, U266B1 cells, with GSI LY-411575",[2],0.26 nM
Pfizer_CD3_H2B4_RRRR-Pfizer_BCMA_comboC29_EEEE hIgG2a_ASS (bispecific antibody) heavy 1: EVQLLESGGGLVQPGGSLRLSCAASGFTFSSYPMSWVRQAPGKGLEWVSAIGGSGGSLPYADSVKGRFTISRDNSKNTLYLQMNSLRAEDTAVYYCARYWPMDIWGQGTLVTVSSASTKGPSVFPLAPCSRSTSESTAALGCLVKDYFPEPVTVSWNSGALTSGVHTFPAVLQSSGLYSLSSVVTVPSSNFGTQTYTCNVDHKPSNTKVDKTVERKCEVECPECPAPPVAGPSVFLFPPKPKDTLMISRTPEVTCVVVAVSHEDPEVQFNWYVDGVEVHNAKTKPREEQFNSTFRVVSVLTVVHQDWLNGKEYKCKVSNKGLPSSIEKTISKTKGQPREPQVYTLPPSREEMTKNQVSLTCEVKGFYPSDISVEWESNGQPENNYKTTPPMLDSDGSFFLYSKLTVDKSRWQQGNVFSCSVMHEALHNHYTQKSLSLSPGK light 1: EIVLTQSPGTLSLSPGERATLSCRASQSVSSSYLAWYQQKPGQAPRLLMYDASIRATGIPDRFSGSGSGTDFTLTISRLEPEDFAVYYCQQYQSWPLTFGQGTKVEIKRTVAAPSVFIFPPSDEQLKSGTASVVCLLNNFYPREAKVQWKVDNALQSGNSQESVTEQDSKDSTYSLSSTLTLSKADYEKHKVYACEVTHQGLSSPVTKSFNRGEC heavy 2: EVQLVESGGGLVQPGGSLRLSCAASGFTFSDYYMTWVRQAPGKGLEWVAFIRNRARGYTSDHNASVKGRFTISRDNAKNSLYLQMNSLRAEDTAVYYCARDRPSYYVLDYWGQGTTVTVSSASTKGPSVFPLAPCSRSTSESTAALGCLVKDYFPEPVTVSWNSGALTSGVHTFPAVLQSSGLYSLSSVVTVPSSNFGTQTYTCNVDHKPSNTKVDKTVERKCRVRCPRCPAPPVAGPSVFLFPPKPKDTLMISRTPEVTCVVVAVSHEDPEVQFNWYVDGVEVHNAKTKPREEQFNSTFRVVSVLTVVHQDWLNGKEYKCKVSNKGLPSSIEKTISKTKGQPREPQVYTLPPSREEMTKNQVSLTCLVKGFYPSDISVEWESNGQPENNYKTTPPMLDSDGSFFLYSRLTVDKSRWQQGNVFSCSVMHEALHNHYTQKSLSLSPGK light 2: not shown,"Fold GSI Enhancement, RTCC assay, KMS11 target cells",[2],48.3 fold
same,"IC50, RTCC assay, KMS11 target cells, No GSI",[2],0.097 nM
same,"IC50, RTCC assay, KMS11 target cells, with GSI LY-450139",[2],0.002 nM
same,"IC50, RTCC assay, KMS11 target cells, with GSI PF-3084014",[2],0.002 nM
same,"IC50, RTCC assay, KMS11 target cells, with GSI PF-5212362",[2],0.002 nM
BCMA×CD3 bispecific antibody EE11 (bispecific antibody) chain 1: not shown chain 2: EVQLVESGGGLVQPGGSLKLSCAASGFTFNTYAMNWVRQASGKGLEWVGRIRSKYNNYATYYADSVKDRFTISRDDSKSTLYLQMNSLKTEDTAVYYCVRHGNFGNSYVSWFAYWGQGTLVTVSSGGGGSGGGGSGGGGSGGGGSQAVVTQEPSLTVSPGGTVTLTCRSSTGAVTTSNYANWVQQKPGQAPRGLIGGTNKRAPWTPARFSGSLLGDKAALTLSGAQPEDEAEYFCALWYSNLWVFGGGTKLTVLGGGGSDKTHTCPPCPAPELLGGPSVFLFPPKPKDTLMISRTPEVTCVVVAVSHEDPEVKFNWYVDGVEVHNAKTKPREEQYNSTYRVVSVLTVLHQDWLNGKEYKCKVSNKALAAPIEKTISKAKGQPREPQVCTLPPSRDELTKNQVSLSCAVKGFYPSDIAVEWESNGQPENNYKTTPPVLDSDGSFFLVSKLTVDKSRWQQGNVFSCSVMHEALHNHYTQKSLSLSPGK,fold enhancement of RTCC EC50 upon GSI treatment,[1],≥ 10 fold
